What was measured:
Assay in all cases: BioID-MS
ATPAF1 (human) = ATPAF1 (human) (UniProt Q5TC12)
PIN1 (human) = PIN1 (human) (UniProt Q13526)
ALDH2 (human) = ALDH2 (human) (UniProt P05091)
RTN4IP1 (human) = RTN4IP1 (human) (UniProt Q8WWV3)
NDUFAF4 (human) = NDUFAF4 (human) (UniProt Q9P032)
ACADM (human) = ACADM (human) (UniProt P11310)
NARS2 (human) = NARS2 (human) (UniProt Q96I59)
ABCB7 (human) = ABCB7 (human) (UniProt O75027)
NDUFS6 (human) = NDUFS6 (human) (UniProt O75380)
AFG3L2 (human) = AFG3L2 (human) (UniProt Q9Y4W6)
PNPT1 (human) = PNPT1 (human) (UniProt Q8TCS8)
METTL17 (human) = METTL17 (human) (UniProt Q9H7H0)
HSDL2 (human) = HSDL2 (human) (UniProt Q6YN16)
GATC (human) = GATC (human) (UniProt O43716)
MRPS17 (human) = MRPS17 (human) (UniProt Q9Y2R5)
LARS2 (human) = LARS2 (human) (UniProt Q15031)
C8orf82 (human) = C8orf82 (human) (UniProt Q6P1X6)
FASTKD2 (human) = FASTKD2 (human) (UniProt Q9NYY8)
DHRS4 (human) = DHRS4 (human) (UniProt Q9BTZ2)
DCAKD (human) = DCAKD (human) (UniProt Q8WVC6)
MRPL55 (human) = MRPL55 (human) (UniProt Q7Z7F7)
GTPBP10 (human) = GTPBP10 (human) (UniProt A4D1E9)
HARS2 (human) = HARS2 (human) (UniProt P49590)
BCKDHA (human) = BCKDHA (human) (UniProt P12694)
NFS1 (human) = NFS1 (human) (UniProt Q9Y697)
ACAD10 (human) = ACAD10 (human) (UniProt Q6JQN1)
DHTKD1 (human) = DHTKD1 (human) (UniProt Q96HY7)
PPIF (human) = PPIF (human) (UniProt P30405)
BCS1L (human) = BCS1L (human) (UniProt Q9Y276)
MRPL12 (human) = MRPL12 (human) (UniProt P52815)
PDK3 (human) = PDK3 (human) (UniProt Q15120)
MTPAP (human) = MTPAP (human) (UniProt Q9NVV4)
RNMTL1 (human) = RNMTL1 (human) (UniProt Q9HC36)
AK3 (human) = AK3 (human) (UniProt Q9UIJ7)
SDHA (human) = SDHA (human) (UniProt P31040)
UQCRB (human) = UQCRB (human) (UniProt P14927)
GFM1 (human) = GFM1 (human) (UniProt Q96RP9)
SUCLA2 (human) = SUCLA2 (human) (UniProt Q9P2R7)
ADCK3 (human) = ADCK3 (human) (UniProt Q8NI60)
MRPS36 (human) = MRPS36 (human) (UniProt P82909)
GATB (human) = GATB (human) (UniProt O75879)
PPA2 (human) = PPA2 (human) (UniProt Q9H2U2)
NME4 (human) = NME4 (human) (UniProt O00746)
PDE12 (human) = PDE12 (human) (UniProt Q6L8Q7)
GCDH (human) = GCDH (human) (UniProt Q92947)
MRPS28 (human) = MRPS28 (human) (UniProt Q9Y2Q9)
PRKCA (human) = PRKCA (human) (UniProt P17252)
MTHFD1L (human) = MTHFD1L (human) (UniProt Q6UB35)
ALDH4A1 (human) = ALDH4A1 (human) (UniProt P30038)
SLC27A2 (human) = SLC27A2 (human) (UniProt O14975)
WARS2 (human) = WARS2 (human) (UniProt Q9UGM6)
IDH3A (human) = IDH3A (human) (UniProt P50213)
NADKD1 (human) = NADKD1 (human) (UniProt Q4G0N4)
GLUD1 (human) = GLUD1 (human) (UniProt P00367)
NDUFAF3 (human) = NDUFAF3 (human) (UniProt Q9BU61)
ABHD10 (human) = ABHD10 (human) (UniProt Q9NUJ1)
MRPL40 (human) = MRPL40 (human) (UniProt Q9NQ50)
HSPE1 (human) = HSPE1 (human) (UniProt P61604)

With “FlagBirA-ClpP (Y118A) (from UniProt P06709 1-321; Q16740 57-277) (enzyme)” the Log2 Fold change (vs control) (ATPAF1 (human)) was 0.59 log2, the Log2 Fold change (vs control) (PIN1 (human)) was -3.81 log2 and the Log2 Fold change (vs control) (ALDH2 (human)) was -0.18 log2. The Log2 Fold change (vs control) (RTN4IP1 (human)) was -0.52 log2, the Log2 Fold change (vs control) (NDUFAF4 (human)) was 1.06 log2 and the Log2 Fold change (vs control) (ACADM (human)) was -0.4 log2. It also gave a Log2 Fold change (vs control) (NARS2 (human)) of -0.14 log2, a Log2 Fold change (vs control) (ABCB7 (human)) of -0.65 log2 and a Log2 Fold change (vs control) (NDUFS6 (human)) of -0.26 log2. It also gave a Log2 Fold change (vs control) (AFG3L2 (human)) of 0.43 log2, a Log2 Fold change (vs control) (PNPT1 (human)) of -0.07 log2 and a Log2 Fold change (vs control) (METTL17 (human)) of -3.58 log2. The Log2 Fold change (vs control) (HSDL2 (human)) was 0.83 log2, the Log2 Fold change (vs control) (GATC (human)) was -0.05 log2 and the Log2 Fold change (vs control) (MRPS17 (human)) was -0.55 log2. It also gave a Log2 Fold change (vs control) (LARS2 (human)) of 0.1 log2, a Log2 Fold change (vs control) (C8orf82 (human)) of 1.6 log2 and a Log2 Fold change (vs control) (FASTKD2 (human)) of 0.71 log2. For the same substance, the Log2 Fold change (vs control) (DHRS4 (human)) was 0.14 log2, the Log2 Fold change (vs control) (DCAKD (human)) was -3.75 log2 and the Log2 Fold change (vs control) (MRPL55 (human)) was -0.2 log2. The Log2 Fold change (vs control) (GTPBP10 (human)) was -0.91 log2, the Log2 Fold change (vs control) (HARS2 (human)) was -0.49 log2 and the Log2 Fold change (vs control) (BCKDHA (human)) was 1.68 log2. It also gave a Log2 Fold change (vs control) (NFS1 (human)) of 0.25 log2, a Log2 Fold change (vs control) (ACAD10 (human)) of -4.09 log2 and a Log2 Fold change (vs control) (DHTKD1 (human)) of -0.12 log2. The Log2 Fold change (vs control) (PPIF (human)) was 0.09 log2, the Log2 Fold change (vs control) (BCS1L (human)) was 0.47 log2 and the Log2 Fold change (vs control) (MRPL12 (human)) was 0.21 log2. It also gave a Log2 Fold change (vs control) (PDK3 (human)) of 0.6 log2, a Log2 Fold change (vs control) (MTPAP (human)) of -0.78 log2 and a Log2 Fold change (vs control) (RNMTL1 (human)) of -0.2 log2. For the same substance, the Log2 Fold change (vs control) (AK3 (human)) was -0.28 log2, the Log2 Fold change (vs control) (SDHA (human)) was 0.34 log2 and the Log2 Fold change (vs control) (UQCRB (human)) was -2.38 log2. The Log2 Fold change (vs control) (GFM1 (human)) was -0.26 log2, the Log2 Fold change (vs control) (SUCLA2 (human)) was -0.06 log2 and the Log2 Fold change (vs control) (ADCK3 (human)) was -0.3 log2. It also gave a Log2 Fold change (vs control) (MRPS36 (human)) of 0.11 log2, a Log2 Fold change (vs control) (GATB (human)) of -3.1 log2 and a Log2 Fold change (vs control) (PPA2 (human)) of 0.02 log2. For the same substance, the Log2 Fold change (vs control) (NME4 (human)) was -0.42 log2, the Log2 Fold change (vs control) (PDE12 (human)) was 0.03 log2 and the Log2 Fold change (vs control) (GCDH (human)) was 1 log2. For the same substance, the Log2 Fold change (vs control) (MRPS28 (human)) was -0.49 log2, the Log2 Fold change (vs control) (PRKCA (human)) was -3.58 log2 and the Log2 Fold change (vs control) (MTHFD1L (human)) was 0.25 log2. The Log2 Fold change (vs control) (ALDH4A1 (human)) was -0.81 log2, the Log2 Fold change (vs control) (SLC27A2 (human)) was -3.81 log2 and the Log2 Fold change (vs control) (WARS2 (human)) was 0.25 log2. The Log2 Fold change (vs control) (IDH3A (human)) was -0.06 log2, the Log2 Fold change (vs control) (NADKD1 (human)) was -1.04 log2 and the Log2 Fold change (vs control) (GLUD1 (human)) was -0.39 log2. It also gave a Log2 Fold change (vs control) (NDUFAF3 (human)) of 0.46 log2, a Log2 Fold change (vs control) (ABHD10 (human)) of -0.16 log2 and a Log2 Fold change (vs control) (MRPL40 (human)) of 0.37 log2. It also gave a Log2 Fold change (vs control) (HSPE1 (human)) of 0.92 log2.

— patent publication US20220143024A1, “METHODS OF USING IMIPRIDONES” (Board of Regents, The University of Texas System, priority 2019, published 2022)
